Patent US7053177B1, “Random peptides that bind to gastro-intestinal tract (GIT) transport receptors and related methods” (Cytogen Corporation, priority 1997, dated 2006)
Where two headings read alike, the source gives them in different places. Ends that are not written are not given here.

Tests used:
fixed Caco-2 cells = assay: ELISA of GST fusion proteins on fixed Caco-2 cells; format: binding; settings: in words
Method: Fixed Caco-2, C2BBe1, and A431 cell plates were prepared by growing cells on tissue culture treated microtiter plates. When cells were confluent, plates were fixed with 10% formaldehyde, washed twice with PBS and stored with 0.5% BSA-PBS at −20° C. […] The standard ELISA procedure was followed at this point.
The standard ELISA procedure was modified as follows. GST proteins were diluted to an appropriate concentration in PBS containing 1% BSA and 0.05% Tween20 (1% BPT), titered and incubated one hour at room temperature. Following five washes an anti-GST monoclonal antibody was added (Sigma, St. Louis Clone GST-2 diluted 1:10,000 in 1% BPT) and incubated one hour. After five more washes goat anti-mouse IgG2b-HRP was added (Southern Biotechnology Associates Inc., Birmingham, Ala., diluted 1:4000 in 1% BPT) and incubated one hour. After five washes plates were developed with TMB peroxidase substrate (Kirkegard and Perry, Gaithersburg, Md.). All data is presented with background binding subtracted.

fixed C2BBe1 cells = assay: Competition ELISA: dansylated peptides versus GST fusion proteins on fixed C2BBe1 cells; format: binding; settings: 5 μg/ml concentration used in competition assays
Method: The standard ELISA procedure was modified as follows. GST fusion proteins and peptides were diluted to an appropriate concentration in PBS containing 1% BSA and 0.05% Tween 20. Peptides were titered, a constant concentration of diluted GST protein was added to titered peptides and the mixture was incubated one hour at room temperature. Following five washes, an anti-GST monoclonal antibody was added (Sigma, St. Louis Clone GST-2 diluted 1:10,000 in 1% BPT) and incubated one hour. After five more washes goat anti-mouse IgG2b-HRP was added (Southern Biotechnology Associates Inc., Birmingham, Ala., diluted 1:4000 in 1% BPT) and incubated one hour. After five washes plates were developed with TMB peroxidase substrate (Kirkegard and Perry, Gaithersburg, Md.). All data is presented with background binding subtracted.
Data is presented as O.D. vs. peptide concentration and as percent inhibition of GST-P31 binding vs. peptide concentration. Uncompeted GST-P31 binding was considered as 100% binding.
FIGS. 10A–10C present a compilation of data generated by competition ELISA of GST-P31, GST-PAX2, GST-SNi10 and GST-HAX42 versus various dansylated peptides on fixed C2BBe1 cells. IC50 values are in μM and include ranges determined from multiple assays. The GST/C2BBe1 column is a summary of GST protein binding to fixed C2BBe1 cells.

[1] = test system: P100 membrane fraction of Caco-2 cells; assay: GST-PAX2 peptides: relative binding to P100 fractions (ratio to GST-HAX42); settings: GST-peptide 20 μg/ml; binding to plastic subtracted; GST-HAX42 = 1.00
Method: The peptides and proteins were analyzed by a dansylated peptide ELISA method in which 96 well plates were coated overnight at 4° C. with 100 μl/well coating protein (normally 100 μg/ml P100 membrane fraction) in 0.05M carbonate buffer pH9.6. Nonspecific binding was blocked using 200 μl/well, 2% Marvel/PBS for 2 hours at 37° C. prior to incubation with dansylated peptides. The plates were washed three times with PBS/0.05% Tween 20 and after each subsequent incubation step. […] A buffer blank control was included to ensure that background binding to plastic was not due to the antibodies used in the assay system. […] The plates were then incubated with an anti-mouse λ-HRP conjugated antibody (Southern Biotech 1060-05) at a 1:10,000 dilution in blocking solution, 100 μl/well for 1 hour at room temperature. Plates were developed using 75 μl/well Bionostics TMB substrate and incubated for approximately 10 minutes. The developing reaction was stopped using Bionostics Red Stop solution (25 μl/well), and the optical density of the plates was read at 650 nm.
After subtraction of the GST-peptide binding to plastic from P100 binding values, the binding of GST-PAX2 peptides were represented as a ratio of GST-HAX42 binding to P100, which was given the arbitrary value of 1.00. The following ratios were determined from binding to P100 of GST-peptides at a peptide concentration of 20 μg/ml. […]

[2] = test system: rat gastro-intestinal tract (closed loop); assay: Transport of preselected phage libraries in rat closed loop, detected by oligonucleotide hybridization/autoradiography; settings: hPEPT1 pool; in words
hPEPT1 = molecular target: T1, hPEPT1 (Homo sapiens, UniProt P46059); assay: Receptor ELISA of phage on recombinant hPEPT1; format: binding; settings: Table 4
T1 construct: 391–571; made in house
T1 sequence (P46059 391-571): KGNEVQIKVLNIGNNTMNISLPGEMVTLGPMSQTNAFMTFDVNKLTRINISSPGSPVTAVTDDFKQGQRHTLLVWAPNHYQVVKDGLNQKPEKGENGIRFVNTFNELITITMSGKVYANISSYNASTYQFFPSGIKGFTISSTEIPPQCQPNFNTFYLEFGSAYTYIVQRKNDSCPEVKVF
Method: (§1) 96 well plates were coated overnight with GIT receptor, BSA and, optionally, IDE (insulin degrading enzyme, an irrelevant His-fusion protein)or hTF. The plates were blocked for one hour with 0.5% BSA-PBS. After clarification, the amplified phage were diluted 1:100 in 1% BSA plus 0.05% Tween 20 in PBS and added to the plates. Following incubation of the plates on a rotator for 1 to 2 hours, the plates were washed 5 times with 1% BSA plus 0.05% Tween 20 in PBS. […] After the plates were washed 5 times, as described above, TMB substrate was added to the wells. The plates were read at 650 nm absorbance.

BSA = BSA (Bos taurus, UniProt P02769); assay: Receptor ELISA of phage on BSA (background control protein); format: binding; settings: Table 4; phage panned on hPEPT1
BSA, sequence (P02769 25-607): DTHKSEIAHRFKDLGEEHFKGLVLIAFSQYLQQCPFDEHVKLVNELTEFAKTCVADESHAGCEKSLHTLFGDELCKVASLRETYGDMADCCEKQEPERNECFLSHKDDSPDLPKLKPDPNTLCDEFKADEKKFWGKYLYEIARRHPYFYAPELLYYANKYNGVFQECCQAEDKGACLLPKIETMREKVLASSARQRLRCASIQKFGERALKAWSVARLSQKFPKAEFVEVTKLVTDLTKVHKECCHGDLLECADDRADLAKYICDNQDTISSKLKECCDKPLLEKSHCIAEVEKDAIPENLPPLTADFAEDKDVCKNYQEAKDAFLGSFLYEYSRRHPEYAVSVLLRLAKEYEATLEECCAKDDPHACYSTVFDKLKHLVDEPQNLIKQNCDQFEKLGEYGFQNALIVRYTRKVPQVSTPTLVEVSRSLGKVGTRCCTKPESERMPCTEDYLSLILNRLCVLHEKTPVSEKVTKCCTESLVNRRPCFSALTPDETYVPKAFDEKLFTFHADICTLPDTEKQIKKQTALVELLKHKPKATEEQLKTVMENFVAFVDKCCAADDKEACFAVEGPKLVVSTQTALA
Method: 96 well plates were coated overnight with GIT receptor, BSA and, optionally, IDE (insulin degrading enzyme, an irrelevant His-fusion protein)or hTF. The plates were blocked for one hour with 0.5% BSA-PBS. After clarification, the amplified phage were diluted 1:100 in 1% BSA plus 0.05% Tween 20 in PBS and added to the plates. Following incubation of the plates on a rotator for 1 to 2 hours, the plates were washed 5 times with 1% BSA plus 0.05% Tween 20 in PBS. Dilute anti-M13-HRP conjugate (anti-M13 antibody linked to horse radish peroxidase (HRP)) was added to all the wells and the plate was incubated for one hour on a rotator. After the plates were washed 5 times, as described above, TMB substrate was added to the wells. The plates were read at 650 nm absorbance.

[3] = molecular target: T2, recombinant HPT1 receptor domain (human intestinal peptide-associated transporter HPT1, amino acid residues 29-273), His-tag fusion protein (human) (UniProt Q12864); assay: phage ELISA on coated HPT1
T2 sequence: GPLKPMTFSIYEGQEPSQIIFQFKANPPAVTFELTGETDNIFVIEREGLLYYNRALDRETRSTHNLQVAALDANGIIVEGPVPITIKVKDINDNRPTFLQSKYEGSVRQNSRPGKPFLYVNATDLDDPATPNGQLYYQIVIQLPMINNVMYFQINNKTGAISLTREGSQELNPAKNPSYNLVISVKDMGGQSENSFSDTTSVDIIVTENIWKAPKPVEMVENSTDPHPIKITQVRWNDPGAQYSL

[4] = molecular target: bovine serum albumin (bovine) (UniProt P02769); assay: phage ELISA on coated BSA
bovine serum albumin (bovine), sequence (P02769 25-607 limits assumed): as the sequence (P02769 25-607) above

[5] = molecular target: T2, recombinant HPT1 receptor domain (human intestinal peptide-associated transporter HPT1, amino acid residues 29-273), His-tag fusion protein (human); assay: phage ELISA, OD on HPT1 over OD on BSA
[6] = molecular target: T3, recombinant HPT1 receptor domain (human intestinal peptide-associated transporter HPT1, amino acid residues … (human, UniProt Q12864 29-273)); assay: phage ELISA, OD on HPT1 over OD on BSA
T3 construct: purified under denaturing conditions; coated on plates
T3 sequence: T2 sequence
Method: as §1, with “6.6. Receptor ELISA Procedure 96” for “96”

[7] = molecular target: bovine serum albumin (bovine) (UniProt P02769); assay: phage ELISA on coated BSA; remark: listed apart in the source
[8] = molecular target: T4, recombinant D2H receptor domain (human D2H transporter, amino acid residues 387-685), His-tag fusion protein (human), Q07837; assay: phage ELISA, OD on D2H over OD on BSA
T4 chain: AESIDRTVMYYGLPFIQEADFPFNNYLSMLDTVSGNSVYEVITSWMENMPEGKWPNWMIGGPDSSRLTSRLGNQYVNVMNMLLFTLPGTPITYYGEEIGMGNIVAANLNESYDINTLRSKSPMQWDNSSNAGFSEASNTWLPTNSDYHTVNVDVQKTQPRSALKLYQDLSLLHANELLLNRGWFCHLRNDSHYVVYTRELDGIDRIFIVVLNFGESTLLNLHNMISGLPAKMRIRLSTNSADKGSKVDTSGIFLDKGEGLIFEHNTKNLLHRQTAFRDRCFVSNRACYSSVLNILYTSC

[9] = molecular target: T4, recombinant D2H receptor domain (human …); assay: phage ELISA on coated D2H
[10] = molecular target: T5, recombinant D2H receptor domain (human D2H transporter, amino acid residues 387-685), His-tag fusion protein (human, UniProt Q07837 387-685); assay: phage ELISA, OD on D2H over OD on BSA
T5 construct: purified under denaturing conditions; coated on plates
T5 sequence: T4 chain
Method: as §1, with “6.6. Receptor ELISA Procedure 96” for “96”
Binding to fixed Caco-2 cells, D2H and BSA was examined.

[11] = molecular target: T6, recombinant hSI receptor domain (human sucrase-isomaltase complex, amino acid residues 272-667), His-tag … (human, UniProt P14410 272-667); assay: phage ELISA, OD on hSI over OD on BSA
T6 construct: purified under denaturing conditions on Ni-NTA agarose; coated on plates; also called hS1
T6 sequence (P14410 272-667 limits assumed, form in doubt, one chain of several): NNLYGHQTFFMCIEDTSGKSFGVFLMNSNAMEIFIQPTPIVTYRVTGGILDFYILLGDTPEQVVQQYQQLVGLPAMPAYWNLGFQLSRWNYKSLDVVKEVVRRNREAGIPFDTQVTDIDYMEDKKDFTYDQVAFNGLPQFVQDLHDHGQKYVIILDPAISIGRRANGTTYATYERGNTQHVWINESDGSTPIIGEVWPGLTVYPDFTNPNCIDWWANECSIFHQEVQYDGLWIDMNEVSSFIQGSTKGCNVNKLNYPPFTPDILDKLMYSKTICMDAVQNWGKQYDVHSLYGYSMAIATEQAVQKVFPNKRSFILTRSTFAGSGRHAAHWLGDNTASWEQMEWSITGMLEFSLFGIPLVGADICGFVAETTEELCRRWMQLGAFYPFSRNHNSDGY
Method: as §1, with “6.6. Receptor ELISA Procedure 96” for “96”

[12] = molecular target: T6, recombinant hSI receptor domain (human …); assay: phage ELISA on coated hSI
Method: as §1, with “6.6. Receptor ELISA Procedure 96” for “96”

GST-HAX42: GST-fusion protein from HAX42 (SDHALGTNLRSDNAKEPGDYNCCGNGNSTGRKVFNRRRPSAIPT; cysteine pairing not given here; also: GST fusion)
Binding to fixed Caco-2 or C2BBe1 cells relative to GST control (fixed Caco-2 cells): weak to moderate binding
Crossreactivity of GST fusion to ZElan018 (PAX2) and ZElan021 (HAX42) (fixed C2BBe1 cells): exhibited crossreactivity
Value (binding to P100 as ratio of GST-HAX42 binding) [1]: 1.00

RGSTGTAGGERSGVLNLHTRDNASGSGFKPWYPSNRGHK (not fully specified) [Peptide 5PAX5]
Binding to / presence in the intestine samples [2]: not found
Presence in the portal circulation [2]: not found
Presence in the systemic circulation [2]: found in the systemic circulation
hPEPT1 (hPEPT1; phage panned on hPEPT1): 0.15 OD
PEPT1/BSA (hPEPT1; ratio of hPEPT1 to BSA binding): 4
BSA (BSA): 0.036 OD

SREEANWDGYKREMSHRSRFWDATHLSRPRRPANSGDPN (peptide, not shown: large carriers, also: displayed as N-terminal pIII fusion on M13 phage) [phage HAX9]
OD [3]: 0.382 OD 650 nm
OD [4]: 0.075 OD 650 nm
HPT/BSA [5]: 5

B1: phage HAX42 (peptide, not shown: large carriers)
peptide: SDHALGTNLRSDNAKEPGDYNCCGNGNSTGRKVFNRRRPSAIPT
modifications: cysteine pairing not given here; also: displayed as N-terminal pIII fusion on M13 phage
OD [3]: 0.32 OD 650 nm
OD [4]: 0.071 OD 650 nm
HPT/BSA [5]: 5

B2: phage HAX40 (peptide)
peptide: REFAERRLWGCDDLSWRLDAEGCGPTPSNRAVKHRKPRPRSPAL
modifications: cysteine pairing not given here; also: displayed as N-terminal pIII fusion on M13 phage
notes: M13 phage displaying this insert as N-terminal pIII fusion; whole phage in the ELISA; also called H44; not shown: M13 pIII display protein and the vector-encoded flanking residues
HPT/BSA [6]: 15 ratio
OD [4]: 0.065 OD 650 nm

SGSLNAWQPRSWVGGAFRSHANNNLNPKPTMVTRHPT (modifications not checked) [phage DCX39]
OD [7]: 0.066 OD 650 nm
D2H/BSA [8]: 5
OD [9]: 0.299 OD 650 nm

B3: phage HCA3 (peptide)
peptide: RHISEYSFANSHLMGGESKRKGCGINGSFSPTCPRSPTPAFRRT
modifications: cysteine pairing not given here; also: displayed as N-terminal pIII fusion on M13 phage
notes: M13 phage displaying this insert as N-terminal pIII fusion; whole phage in the ELISA; not shown: M13 pIII display protein and the vector-encoded flanking residues
HPT1/BSA [6]: 1 ratio
OD [4]: 0.038 OD 650 nm

B4: phage DCX36 (peptide)
peptide: SWSSWNWSSKTTRLGDRATREGCGPSQSDGCPYNGRLTTVKPRT
notes: M13 phage displaying this insert as N-terminal pIII fusion; whole phage in the ELISA
D2H/BSA [10]: 5 ratio

B5: phage S21 (peptide)
peptide: SPRSFWPVVSRHESFGISNYLGCGYRTCISGTMTKSSPIYPRHS
notes: as for B4
hSI/BSA [11]: 9 ratio
OD [12]: 0.845 OD 650 nm
OD [4]: 0.092 OD 650 nm
